According to PMC6317279:

Target: FLAG-tagged CRTC3 S391A (mouse) (UniProt Q91X84)
Chain of UniProt Q91X84 (Q91X84 whole entry S391A): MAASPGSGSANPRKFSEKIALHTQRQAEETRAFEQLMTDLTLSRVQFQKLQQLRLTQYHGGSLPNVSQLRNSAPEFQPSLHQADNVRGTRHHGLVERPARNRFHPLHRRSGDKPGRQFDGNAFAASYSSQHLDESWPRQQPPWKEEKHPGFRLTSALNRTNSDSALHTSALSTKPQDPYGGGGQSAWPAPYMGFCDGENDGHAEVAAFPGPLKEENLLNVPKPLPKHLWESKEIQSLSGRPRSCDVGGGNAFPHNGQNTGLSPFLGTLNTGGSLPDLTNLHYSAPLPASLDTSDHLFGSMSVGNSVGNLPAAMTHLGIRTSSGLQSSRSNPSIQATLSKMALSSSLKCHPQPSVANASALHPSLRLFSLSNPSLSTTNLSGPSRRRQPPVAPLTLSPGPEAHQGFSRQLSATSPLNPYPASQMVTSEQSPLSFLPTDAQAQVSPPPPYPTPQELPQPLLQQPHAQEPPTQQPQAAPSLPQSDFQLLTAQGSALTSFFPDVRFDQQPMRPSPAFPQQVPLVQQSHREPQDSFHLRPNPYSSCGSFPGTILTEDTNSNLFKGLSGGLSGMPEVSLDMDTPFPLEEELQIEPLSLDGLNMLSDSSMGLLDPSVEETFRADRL

transient CRE luciferase-based (EVX-Luc) reporter assay, basal transcriptional activity of S391A mutant CRTC3 against WT CRTC3: 2 fold lower
Substance: B55 PP2A holoenzyme (protein phosphatase 2A: catalytic, scaffold and 55-kDa regulatory B subunits) (from UniProt P67775 1-309; P30153 1-589; P63151 1-447) (complex)
